Experimental data taken from patent US20260021119A1, “TETRACYCLINE DERIVATIVES” (ICM (INSTITUT DU CERVEAU ET DE LA MOELLE ÉPINIÈRE), priority 2022, published 2026).

Tested on: p-tau (phosphorylated tau protein at Ser202, Thr205 residues)
Experiment: p-tau (AT8) expression in cultured cortical neurons under oxidative stress
Assay type: cell-based, mouse
Design: key to Reduction of the % of p-tau+ somas: a favorable response, synonymous with a decrease in the number of p-tau+ cell bodies; ++: a favorable response, synonymous with a decrease in the number of p-tau+ cell bodies; +++=reference level; an unfavorable response is represented by a sign “−”, synonymous with an elevation of the number of p-tau+ cell bodies
Details: compounds 3 μM, APO 100 μg/mL; mouse cortical cultures exposed div 7-11 to DF12i
Description: A culture model of cortical neurons from mouse embryonic brain was used, in which neuronal cells were subjected to a maturation step until day in vitro (div) 7, before being gradually exposed to phenol red formulated DMEM/Nutrient mixture F12 Ham supplemented with 20 μg/mL of insulin, and 2 μM of the NMDA receptor blocker MK-801 (DF12i).
Precisely, after 4 days of exposure to DF12i, between 10-15% of surviving neurons show a very strong AT8 immunosignal in their somas while only 1 to 1.5% of neuronal cell bodies are found immunopositive under conditions where oxidative stress is repressed by treatment with bovine apotransferrin (APO; 100 µg/mL, Sigma Aldrich), a glycoprotein with iron chelating properties. Likewise, overexpression of p-tau in cortical cell bodies is reduced by the two non-antibiotic tetracyclines compound of formula (C) ([…]) and compound of formula (Ib) ([…]): see the following Table: […]

B1: apotransferrin (protein, UniProt Q29443 20-704, looked up)
Serotransferrin: DPERTVRWCTISTHEANKCASFRENVLRILESGPFVSCVKKTSHMDCIKAISNNEADAVTLDGGLVYEAGLKPNNLKPVVAEFHGTKDNPQTHYYAVAVVKKDTDFKLNELRGKKSCHTGLGRSAGWNIPMAKLYKELPDPQESIQRAAANFFSASCVPCADQSSFPKLCQLCAGKGTDKCACSNHEPYFGYSGAFKCLMEGAGDVAFVKHSTVFDNLPNPEDRKNYELLCGDNTRKSVDDYQECYLAMVPSHAVVARTVGGKEDVIWELLNHAQEHFGKDKPDNFQLFQSPHGKDLLFKDSADGFLKIPSKMDFELYLGYEYVTALQNLRESKPPDSSKDECMVKWCAIGHQERTKCDRWSGFSGGAIECETAENTEECIAKIMKGEADAMSLDGGYLYIAGKCGLVPVLAENYKTEGESCKNTPEKGYLAVAVVKTSDANINWNNLKDKKSCHTAVDRTAGWNIPMGLLYSKINNCKFDEFFSAGCAPGSPRNSSLCALCIGSEKGTGKECVPNSNERYYGYTGAFRCLVEKGDVAFVKDQTVIQNTDGNNNEAWAKNLKKENFEVLCKDGTRKPVTDAENCHLARGPNHAVVSRKDKATCVEKILNKQQDDFGKSVTDCTSNFCLFQSNSKDLLFRDDTKCLASIAKKTYDSYLGDDYVRAMTNLRQCSTSKLLEACTFHKP
modifications: iron-free apo form
  Reduction of the % of p-tau+ somas: +++
